Data from paper PMC4816394.

Legend:
[1] = molecular target: human triosephosphate isomerase M82T (hTPI^M82T) (human); experiment: SEC; purified TPI diluted to 15 uM in mobile phase, 100 ul injected, elution monitored at 280 nm; peak areas integrated for the relative monomer and dimer populations; dimer to monomers
[2] = molecular target: human triosephosphate isomerase K13M, catalytically inactive (hTPI^Δcat) (human); experiment: crystal structure; sitting drops, 28-34% PEG2000 MME, 50 mM KBr; space group P212121, a dimer in the asymmetric unit; 1.7 Å

Substance | percent dimer (dimer:monomer ratio of peak areas) [1] | stoichiometry N [2]
human triosephosphate isomerase M82T (hTPI^M82T) (enzyme) | 5% | –
human triosephosphate isomerase K13M, catalytically inactive (hTPI^Δcat) (enzyme) | – | 2
